Assay [1] has as its target T1, CHD1aa270-443 (UniProt O14646 270-443).
T1 construct: Recombinant fragment; also called CHD1 double chromodomain fragment
T1 sequence (looked up): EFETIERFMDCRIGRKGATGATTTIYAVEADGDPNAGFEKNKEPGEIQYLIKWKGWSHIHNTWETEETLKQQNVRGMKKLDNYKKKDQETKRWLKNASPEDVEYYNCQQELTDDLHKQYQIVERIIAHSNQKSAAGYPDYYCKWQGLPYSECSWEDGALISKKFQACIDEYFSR
Briefly: isothermal titration calorimetry (data not shown).

The target in a further assay is T2, Flag-LSD1 K114A (UniProt O60341 1-852, limits assumed).
T2 construct: Obtained by site directed mutagenesis of Flag-LSD1; not shown: Flag tag
Briefly: co-immunoprecipitation with anti-Flag antibody from transfected 293T cells without G9A, Western blot decorated with anti-CHD1. On the technique in general: Immunoblotting shows a protein as a band on a membrane.

Another assay has as its target T3, CHD1 D425A (UniProt O14646 270-443, limits assumed).
T3 construct: also called D425A mutation in CHD1
T3 sequence (looked up): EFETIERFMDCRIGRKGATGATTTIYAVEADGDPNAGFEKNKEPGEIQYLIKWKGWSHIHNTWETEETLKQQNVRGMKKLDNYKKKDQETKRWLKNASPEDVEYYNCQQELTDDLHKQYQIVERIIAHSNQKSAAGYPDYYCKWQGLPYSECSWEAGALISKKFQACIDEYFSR
Briefly: isothermal titration calorimetry (data not shown).

In assay [2] the target is T1, CHD1aa270-443. Kind of assay: co-crystal structure of the CHD1 double chromodomain with the LSD1 K114me2 peptide.
Description: Crystals (space group P21212) were grown by sitting drop vapour diffusion at 4° C. in buffer containing 100 mM Hepes pH 7.5, 0.2 M L-proline, 10% (w/v) PEG3350. Prior to flash cooling in liquid nitrogen, crystals were cryoprotected in reservoir solution with 20% (v/v) ethylene glycol. Initial X-ray diffraction data were collected at the PXI beamline at the Swiss Light Source at 1=1.000 Å with a Pilatus detector. […] Data were processed and analyzed with XDS28 and Aimless²⁹. The structure was solved by molecular replacement with Phaser³⁰ using 2B2W as a search model. Manual building and refinement were performed using Coot31 and Refmac532 in the CCP4 program suite³³.

Square brackets hold non-standard residues; d marks the D form. Ends that are not written are not given here. Lys(Me2) = CN(C)CCCC[C@H](N)C(=O)O

Regarding TPEGRRTSRA[Lys(Me2)]RAKVEYREMDESL (peptide, UniProt O60341 104-127, looked up, also called LSD1 R113A K114me2 peptide) [LSD1 K114me2 peptide with R113 mutated to alanine], the binding result in the assay with CHD1aa270-443 [1] is recorded as “no binding”.

B1: endogenous CHD1 (enzyme, human, UniProt O14646 1-1710, looked up)
chain: MNGHSDEESVRNSSGESSQSDDDSGSASGSGSGSSSGSSSDGSSSQSGSSDSDSGSESGSQSESESDTSRENKVQAKPPKVDGAEFWKSSPSILAVQRSAILKKQQQQQQQQQHQASSNSGSEEDSSSSEDSDDSSSEVKRKKHKDEDWQMSGSGSPSQSGSDSESEEEREKSSCDETESDYEPKNKVKSRKPQNRSKSKNGKKILGQKKRQIDSSEEDDDEEDYDNDKRSSRRQATVNVSYKEDEEMKTDSDDLLEVCGEDVPQPEEEEFETIERFMDCRIGRKGATGATTTIYAVEADGDPNAGFEKNKEPGEIQYLIKWKGWSHIHNTWETEETLKQQNVRGMKKLDNYKKKDQETKRWLKNASPEDVEYYNCQQELTDDLHKQYQIVERIIAHSNQKSAAGYPDYYCKWQGLPYSECSWEDGALISKKFQACIDEYFSRNQSKTTPFKDCKVLKQRPRFVALKKQPSYIGGHEGLELRDYQLNGLNWLAHSWCKGNSCILADEMGLGKTIQTISFLNYLFHEHQLYGPFLLVVPLSTLTSWQREIQTWASQMNAVVYLGDINSRNMIRTHEWTHHQTKRLKFNILLTTYEILLKDKAFLGGLNWAFIGVDEAHRLKNDDSLLYKTLIDFKSNHRLLITGTPLQNSLKELWSLLHFIMPEKFSSWEDFEEEHGKGREYGYASLHKELEPFLLRRVKKDVEKSLPAKVEQILRMEMSALQKQYYKWILTRNYKALSKGSKGSTSGFLNIMMELKKCCNHCYLIKPPDNNEFYNKQEALQHLIRSSGKLILLDKLLIRLRERGNRVLIFSQMVRMLDILAEYLKYRQFPFQRLDGSIKGELRKQALDHFNAEGSEDFCFLLSTRAGGLGINLASADTVVIFDSDWNPQNDLQAQARAHRIGQKKQVNIYRLVTKGSVEEDILERAKKKMVLDHLVIQRMDTTGKTVLHTGSAPSSSTPFNKEELSAILKFGAEELFKEPEGEEQEPQEMDIDEILKRAETHENEPGPLTVGDELLSQFKVANFSNMDEDDIELEPERNSKNWEEIIPEDQRRRLEEEERQKELEEIYMLPRMRNCAKQISFNGSEGRRSRSRRYSGSDSDSISEGKRPKKRGRPRTIPRENIKGFSDAEIRRFIKSYKKFGGPLERLDAIARDAELVDKSETDLRRLGELVHNGCIKALKDSSSGTERTGGRLGKVKGPTFRISGVQVNAKLVISHEEELIPLHKSIPSDPEERKQYTIPCHTKAAHFDIDWGKEDDSNLLIGIYEYGYGSWEMIKMDPDLSLTHKILPDDPDKKPQAKQLQTRADYLIKLLSRDLAKKEALSGAGSSKRRKARAKKNKAMKSIKVKEEIKSDSSPLPSEKSDEDDDKLSESKSDGRERSKKSSVSDAPVHITASGEPVPISEESEELDQKTFSICKERMRPVKAALKQLDRPEKGLSEREQLEHTRQCLIKIGDHITECLKEYTNPEQIKQWRKNLWIFVSKFTEFDARKLHKLYKHAIKKRQESQQNSDQNSNLNPHVIRNPDVERLKENTNHDDSSRDSYSSDRHLTQYHDHHKDRHQGDSYKKSDSRKRPYSSFSNGKDHRDWDHYKQDSRYYSDREKHRKLDDHRSRDHRSNLEGSLKDRSHSDHRSHSDHRLHSDHRSSSEYTHHKSSRDYRYHSDWQMDHRASSSGPRSPLDQRSPYGSRSPFEHSVEHKSTPEHTWSSRKT
notes: Endogenous protein in cell extracts; also called endogenously expressed CHD1
Turning to B1, the binding result with Flag-LSD1 K114A is reported as “no binding”.

B2: LSD1aa104-127 K114me2 peptide (peptide, UniProt O60341 104-127, looked up)
peptide: TPEGRRTSRR[Lys(Me2)]RAKVEYREMDESL
notes: range 104-127; Synthetic peptide, used on the microarray and in ITC; also called LSD1 K114me2 peptide; dimethylated LSD1 peptide
For B2, the binding result with CHD1 D425A is “no binding”.

B3: LSD1aa108-119 K114me2 peptide (peptide, UniProt O60341 108-119, looked up)
peptide: RRTSRR[Lys(Me2)]RAKVE
notes: range 108-119; Peptide used for co-crystallisation; only residues 110-116 were modelled in the electron density; also called LSD1aa110-116 K114me2 (residues modelled in the structure); LSD1 K114me2 peptide
Regarding B3, the binding result in the assay with CHD1aa270-443 [2] was “binds”.
